{"source": "paper PMC8761896", "about": "(2021)", "binders": {"B1": {"name": "germline reverted VRC01 (VRC01gl) Fab (Fab, V domains shown)", "VH": "not shown", "VL": "EIVLTQSPATLSLSPGERATLSCRASQSVSSYLAWYQQKPGQAPRLLIYDASNRATGIPARFSGSGSGTDFTLTISSLEPEDFAVYYCQQYEFFGQGTKLEIK"}, "B2": {"name": "VRC01gl Fab with comL ('VQ' insertion at 103aL and 103bL, L104VL, E105DL) (Fab, V domains shown)", "VH": "not shown", "VL": "EIVLTQSPATLSLSPGERATLSCRASQSVSSYLAWYQQKPGQAPRLLIYDASNRATGIPARFSGSGSGTDFTLTISSLEPEDFAVYYCQQYEFFGQGTKVQVDI"}}, "key": {"eOD-GT6 [1]": {"target": "eOD-GT6", "experiment": "SPR"}, "eOD-GT6 [2]": {"target": "eOD-GT6", "experiment": "SPR", "remark": "listed apart in the source"}}}
{"binder": "B1", "values": [{"measurement": "Kd", "setting": "eOD-GT6 [1]", "value": 16.2, "unit": "nM"}, {"measurement": "koff", "setting": "eOD-GT6 [2]", "value": 0.00073, "unit": "s⁻¹"}]}
{"binder": "B2", "values": [{"measurement": "Kd", "setting": "eOD-GT6 [1]", "value": 16.4, "unit": "nM"}, {"measurement": "koff", "setting": "eOD-GT6 [2]", "value": 0.000642, "unit": "s⁻¹"}]}
